In the Human Domainome abundance scans (Beltran et al. 2025):

B1: KAT8 regulatory NSL complex subunit 2, residues 28 to 91; numbered along this chain, Q9H9L4 (parent)
chain: CAFTHRPCSHPRLEGQEFCIKHILEDKNAPFKQCSYISTKNGKRCPNAAPKPEKKDGVSFCAEH
B2: Androgen receptor, residues 557 to 632; numbered along this chain, P10275 (parent)
chain: QKTCLICGDEASGCHYGALTCGSCKVFFKRAAEGKQKYLCASRNDCTIDKFRRKNCPSCRLRKCYEAGMTLGARKL

Variants of: B1
Assay: abundance fitness (aPCA) (normalised: wild type 0, dead -1); higher = more abundant; growth selection in yeast, the domain comes from the species named
Conditions: Homo sapiens

Abundance fitness: each site, then its substitutions
S59: W 0.01; A -0.056; P -0.141; I -0.006; R -0.12; C -0.089; E -0.243; Y -0.048; G -0.024; V -0.095; T -0.036; H -0.157; N -0.189; Q -0.045; M -0.084; L -0.037; F -0.062
V58: I -0.048; L -0.046; C 0.012; F -0.063; Y -0.046; G -0.138; R -0.082; M -0.018; A -0.018; K -0.037; Q 0.019; W -0.121; S -0.088; N -0.178; T -0.1; D 0.009; P -0.098; E -0.057
A62: E -0.101; Q -0.057; F -0.111; G -0.078; S -0.055; C -0.018; I -0.057; H -0.081; M -0.103; P -0.065; W -0.088; K 0.095; V -0.059; L -0.087; T -0.065; N -0.105; D -0.093; R -0.028; Y -0.198
P50: V -0.204; Y -0.249; W -0.287
K51: P -0.109; F -0.21; R -0.087; C -0.072; I -0.041; Y -0.327; D -0.05; H -0.166; G -0.033; V -0.035; M -0.099; L -0.101; Q -0.217; N -0.195; T -0.112; S -0.105; A -0.03; E -0.064
D56: H -0.055; K 0.011; T -0.057; F -0.137; A -0.111; E -0.113; C -0.067; S -0.067; Q -0.073; W -0.305; I -0.2; R -0.063; P -0.096; Y -0.148; N -0.073
P52: R -0.144; F -0.01; V -0.083; H -0.133; A -0.072; W -0.053; D -0.077; Q -0.061; Y -0.29; M -0.024; G -0.068; E -0.066; L -0.106; K -0.136; I -0.136; S -0.082; C -0.188
H64: A -0.582; I -1.02; T -0.33; Y -0.781; P -0.401; V -0.534; Q -0.463; M -0.333; E -0.877; R -0.427; S -0.315; W -1.55; L -0.602; K -0.509; D -0.324; N -0.441
C61: V -0.426; N -0.449; A -0.483; T -0.356; F -0.722; K -0.436; W -0.667; E -0.399; G -0.393; Y -0.585; Q -0.44; H -0.447; R -0.56; S -0.432; M -0.573; I -0.499
E63: H 0.136; A -0.064; S -0.093; P -0.188; M -0.165; V -0.175; C -0.111; I -0.223; W -0.086; T -0.054; G -0.034; K -0.09; Q -0.175; Y -0.138; D 0.003; F -0.107; L -0.17; R -0.024; N -0.062
G57: D -0.138; S -0.372

Variants of: B2
Assay: as above
Conditions: Homo sapiens

Abundance fitness: each site, then its substitutions
C14: H -0.035; S -0.105; D 0.081; G -0.11; L 0; A -0.013; Q -0.133; N -0.351; I 0.085; F -0.1; E 0.002; W -0.419; P -0.057; V -0.231; R -0.142; T 0.099; M -0.087
G8: Q -0.463; Y 0.036; H -0.06; W -0.529; K -0.111; A 0.009; R -0.43; S -0.165; C -0.319; N -0.29; T -0.31; L -0.146; E -0.045; V -0.868
D9: Q -0.071; K -0.53; C -0.053; L -0.626; V -0.201; W -0.289; E -0.171; F -0.562; A -0.089; Y -0.609; N -0.008; I -0.109; R -0.378; H 0.138; S -0.061; G -0.182
G13: D -0.198; C -0.311; S -0.034; A -0.167; L -0.115; T -0.057; M -0.163; R -0.2; N -0.201; V -0.061; E -0.274; W -0.571; K -0.229; I -0.416
L5: E -0.071; W -0.122; F -0.078; D -0.065; R -0.105; H -0.137; I -0.04; C -0.07; Y -0.162; V -0.145; N -0.058; Q -0.113; G -0.189; S -0.013; A -0.109; T -0.01; K -0.053; P -0.296; M -0.212
T3: N 0.035; H -0.225; E -0.148; V -0.245; L -0.035; P -0.229; G -0.078; Q -0.04; I 0.009; R -0.083; K -0.252; C 0.014; W -0.115; A -0.081; Y -0.003; S -0.059; D -0.171
C7: N -0.212; W -0.79; L -0.886; V -1.2; Y -0.583; E -1.03; T -0.819; G -0.874; S -0.615
S12: I -0.091; T -0.149; Y -0.031; V -0.025; G -0.056; D -0.031; E 0.047; P -0.077; H -0.237; M -0.026; Q 0.049; L 0.055; R -0.06; K -0.054; N 0.21; A -0.046; W -0.181; F -0.389; C -0.305
I6: R -0.525; K -1.05; V -0.243; C -0.327; S -0.617; M -0.811; A -0.427; Q -0.459; L -0.789; T -0.256; D -0.646
C4: L -0.745; H -0.851; Y -0.884; M -0.679; G -0.61; W -0.964; R -0.114; E -0.563; K -0.87
Q1: W -0.032; C -0.019; H -0.504; M 0.007; S -0.058; A -0.144; I 0.198; Y 0.172; D 0.071; T 0.106; L -0.027; F 0.16; G 0.048; V 0.06; N -0.053; K 0.076; R -0.228; P -0.439
H15: A -0.151; C -0.037; G -0.151; I -0.063; P -0.27; D -0.177; E 0.099; N -0.157; L -0.211; M -0.088; K -0.106
